The values that follow come from article PMC9104551.

For this series, the system named is XylR (ROK family transcriptional regulator) (Paenibacillus polymyxa ATCC842). Description: EMSA. The note with it: Chemiluminescent EMSA Kit (Beyotime), biotinylated PCR probes; XylR 0.02-0.1 g/L (protein:probe 20.9-104.4) for BST/DTE; buffer, pH, temperature not stated. In general terms: Mobility shift assays separate free from complexed probe on a gel.

-1C (A/T to C/G outside site) returned a binding signal of 50.8 % bound.
As for -1G (A/T to G/C outside site), the figure is 64.5 % bound; as for -1T (A/T to T/A outside site), 61.3 % bound.
Next, -2C (A/T to C/G outside site): 57.6 % bound; -2G (A/T to G/C outside site): 60.8 % bound.
Next, -2T (A/T to T/A outside site): 65.4 % bound.
Regarding BST 1C (A/T to C/G), the binding signal is 19.8 % bound.
As for BST 1G (A/T to G/C), the figure is 18.8 % bound.
On to BST 1T (A/T to T/A), for which the binding signal came out at 30 % bound.
As for BST 17A (G71A), the figure is 1.9 % bound; as for BST 17C (G71C), 63.5 % bound; as for BST 17T (G71T), 52.1 % bound.
BST (full predicted site) yielded a binding signal of 70 % bound.
